What was measured:
[1] = molecular target: CD54 (ICAM-1) (UniProt P05362); assay: SPR (BIAcore), CD54 on CM5 chip, A domain flowed; linear transformation, mean±SD, n=2
[2] = molecular target: complement iC3b (UniProt P01024); assay: SPR (BIAcore), iC3b on CM5 chip, A domain flowed; linear transformation, mean±SD, n=2
[3] = molecular target: fibrinogen (UniProt P02671); assay: SPR (BIAcore), fibrinogen on CM5 chip, A domain flowed; linear transformation, mean±SD, n=2
[4] = molecular target: complement iC3b (UniProt P01024); assay: SPR (BIAcore), iC3b on CM5 chip, A domain flowed

fibrinogen, sequence (P02671 20-629 limits assumed, chain 1 of 3): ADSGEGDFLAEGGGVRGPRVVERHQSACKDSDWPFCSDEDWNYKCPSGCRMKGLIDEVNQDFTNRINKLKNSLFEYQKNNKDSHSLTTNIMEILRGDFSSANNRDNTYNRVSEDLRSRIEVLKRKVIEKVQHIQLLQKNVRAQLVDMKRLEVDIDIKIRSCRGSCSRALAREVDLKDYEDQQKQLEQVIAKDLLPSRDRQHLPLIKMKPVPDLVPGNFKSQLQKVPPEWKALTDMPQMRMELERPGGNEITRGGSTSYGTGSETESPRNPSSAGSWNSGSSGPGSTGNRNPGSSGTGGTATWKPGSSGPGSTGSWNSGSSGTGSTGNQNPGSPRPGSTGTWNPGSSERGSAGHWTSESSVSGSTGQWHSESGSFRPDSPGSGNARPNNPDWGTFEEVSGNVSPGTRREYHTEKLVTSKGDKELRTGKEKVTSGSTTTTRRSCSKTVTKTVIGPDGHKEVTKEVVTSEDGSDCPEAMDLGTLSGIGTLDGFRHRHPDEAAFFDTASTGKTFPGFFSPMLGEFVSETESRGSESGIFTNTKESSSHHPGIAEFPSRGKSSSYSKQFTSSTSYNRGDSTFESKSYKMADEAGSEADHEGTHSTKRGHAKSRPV
fibrinogen, sequence (P02675 31-491 limits assumed, chain 2 of 3, further chain): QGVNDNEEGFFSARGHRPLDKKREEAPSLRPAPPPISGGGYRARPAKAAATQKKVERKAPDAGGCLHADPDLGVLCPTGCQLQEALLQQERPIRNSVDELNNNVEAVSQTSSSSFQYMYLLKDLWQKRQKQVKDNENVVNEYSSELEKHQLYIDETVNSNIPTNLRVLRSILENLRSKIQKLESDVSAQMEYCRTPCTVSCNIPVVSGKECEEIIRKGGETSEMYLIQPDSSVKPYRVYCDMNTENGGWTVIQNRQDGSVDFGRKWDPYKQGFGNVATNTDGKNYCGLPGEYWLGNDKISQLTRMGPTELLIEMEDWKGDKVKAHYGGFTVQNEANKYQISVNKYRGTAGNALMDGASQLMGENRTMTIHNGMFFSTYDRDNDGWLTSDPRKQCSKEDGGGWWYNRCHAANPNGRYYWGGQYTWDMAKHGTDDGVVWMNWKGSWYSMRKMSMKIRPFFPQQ
fibrinogen, sequence (P02679 other isoform, or with tags, fused parts or gaps limits assumed, chain 3 of 3, further chain): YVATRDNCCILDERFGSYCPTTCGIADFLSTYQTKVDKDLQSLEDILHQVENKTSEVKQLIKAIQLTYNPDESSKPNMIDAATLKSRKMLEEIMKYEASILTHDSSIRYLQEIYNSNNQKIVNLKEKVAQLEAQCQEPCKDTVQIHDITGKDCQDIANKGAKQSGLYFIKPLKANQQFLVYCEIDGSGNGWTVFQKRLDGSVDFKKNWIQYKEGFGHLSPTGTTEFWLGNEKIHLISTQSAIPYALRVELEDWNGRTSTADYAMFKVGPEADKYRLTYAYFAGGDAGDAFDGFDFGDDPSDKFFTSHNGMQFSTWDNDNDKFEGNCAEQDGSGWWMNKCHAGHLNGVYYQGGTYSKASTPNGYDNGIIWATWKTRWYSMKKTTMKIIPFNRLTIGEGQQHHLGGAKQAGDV
CD54 (ICAM-1), sequence (P05362 28-480 limits assumed): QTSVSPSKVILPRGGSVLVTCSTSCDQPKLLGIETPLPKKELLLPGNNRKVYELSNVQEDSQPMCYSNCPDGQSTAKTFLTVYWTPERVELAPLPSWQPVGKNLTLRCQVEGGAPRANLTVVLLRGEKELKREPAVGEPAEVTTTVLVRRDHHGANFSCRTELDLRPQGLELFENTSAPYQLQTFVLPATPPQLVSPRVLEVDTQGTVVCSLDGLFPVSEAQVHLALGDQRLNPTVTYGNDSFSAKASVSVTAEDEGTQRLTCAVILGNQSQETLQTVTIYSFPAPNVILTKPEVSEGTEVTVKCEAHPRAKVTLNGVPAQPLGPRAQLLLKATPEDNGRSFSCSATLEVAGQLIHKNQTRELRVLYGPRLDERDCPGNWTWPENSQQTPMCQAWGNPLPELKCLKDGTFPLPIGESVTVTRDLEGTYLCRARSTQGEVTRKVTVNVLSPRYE

Kd [1] [nM] | Kd [2] [nM] | Kd [3] [nM] | Kd [4] [nM] | Substance
220 | 460 | 250 | – | variant CD11b A domain consisting of amino acids E123 to K315 (11bA^123-315) (from UniProt P11215 139-331) (receptor)
– | – | – | 660 | variant CD11b A domain with an Ile to Gly change at residue 316 (11bA^I→G) (from UniProt P11215 139-337) (receptor)

— US20030109691A1
